# From publication PMC4678846
# B1: MbPylRS (Methanosarcina barkeri str. Fusaro) (protein)
# chain: MDKKPLDVLISATGLWMSRTGTLHKIKHYEVSRSKIYIEMACGDHLVVNNSRSCRTARAFRHHKYRKTCKRCRVSDEDINNFLTRSTEGKTSVKVKVVSAPKVKKAMPKSVSRAPKPLENPVSAKASTDTSRSVPSPAKSTPNSPVPTSAPAPSLTRSQLDRVEALLSPEDKISLNIAKPFRELESELVTRRKNDFQRLYTNDREDYLGKLERDITKFFVDRDFLEIKSPILIPAEYVERMGINNDTELSKQIFRVDKNLCLRPMLAPTLYNYLRKLDRILPDPIKIFEVGPCYRKESDGKEHLEEFTMVNFCQMGSGCTRENLESLIKEFLDYLEIDFEIVGDSCMVYGDTLDIMHGDLELSSAVVGPVPLDREWGIDKPWIGAGFGLERLLKVMHGFKNIKRASRSESYYNGISTNL
# Substrate: CC(C)(C)OC(=O)NCCCC[C@H](N)C(=O)O
# Assay: purified protein
# Conditions: wild-type tRNA^Pyl, 10 mM ATP, 10 mM MgCl2, pH 7.2, 37 °C, apparent, amino acid not given, BocK inferred
protein,measurement,value
B1,Km,1030 ± 50 µM
